Laboratory results reported in publication PMC5490261, “The structural and functional characterization of human RecQ4 reveals insights into its helicase mechanism”.

Tests used:
RecQ4 427-1208 H615L = target: T1, RecQ4 427-1208 H615L (Homo sapiens, UniProt O94761 427-1208, H615L); assay: fluorescence polarization; WT-like affinity; figure values not assignable from text layer; 20 mM HEPES pH 8.0, 10 mM NaCl, 5% glycerol, 1 mM MgCl2, 0.5 mM TCEP, 0.5 nM Cy3-ssDNA; temperature not stated; settings: protein: recombinant; tags: Trx-His6 removed by 3C protease; label: 5' Cy3
T1 sequence: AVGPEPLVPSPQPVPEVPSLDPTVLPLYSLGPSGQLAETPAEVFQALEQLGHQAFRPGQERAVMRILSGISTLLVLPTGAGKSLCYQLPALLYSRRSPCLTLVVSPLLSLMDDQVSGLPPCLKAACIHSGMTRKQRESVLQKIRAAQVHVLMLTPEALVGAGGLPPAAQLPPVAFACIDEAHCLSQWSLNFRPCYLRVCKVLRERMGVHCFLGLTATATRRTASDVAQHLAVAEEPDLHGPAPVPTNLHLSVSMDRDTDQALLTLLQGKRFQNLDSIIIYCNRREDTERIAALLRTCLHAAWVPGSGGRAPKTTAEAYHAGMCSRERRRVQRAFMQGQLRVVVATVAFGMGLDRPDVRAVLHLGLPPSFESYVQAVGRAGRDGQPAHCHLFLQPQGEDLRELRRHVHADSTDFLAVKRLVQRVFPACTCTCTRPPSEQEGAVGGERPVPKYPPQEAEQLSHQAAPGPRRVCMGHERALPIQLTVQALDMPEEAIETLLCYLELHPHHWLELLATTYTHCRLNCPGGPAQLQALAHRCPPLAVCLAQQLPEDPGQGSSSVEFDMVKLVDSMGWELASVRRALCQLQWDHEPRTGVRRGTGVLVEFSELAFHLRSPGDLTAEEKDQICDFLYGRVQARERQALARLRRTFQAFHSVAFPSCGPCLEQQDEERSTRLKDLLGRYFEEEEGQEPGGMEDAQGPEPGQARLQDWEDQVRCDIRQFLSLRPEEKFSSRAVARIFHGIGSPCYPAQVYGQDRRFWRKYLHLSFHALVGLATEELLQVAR

RecQ4 427-1208 W613L = target: T2, RecQ4 427-1208 W613L (Homo sapiens, UniProt O94761 427-1208, W613L); assay: as above; settings: protein: recombinant; tags: Trx-His6 removed by 3C protease; label: 5' Cy3
T2 sequence: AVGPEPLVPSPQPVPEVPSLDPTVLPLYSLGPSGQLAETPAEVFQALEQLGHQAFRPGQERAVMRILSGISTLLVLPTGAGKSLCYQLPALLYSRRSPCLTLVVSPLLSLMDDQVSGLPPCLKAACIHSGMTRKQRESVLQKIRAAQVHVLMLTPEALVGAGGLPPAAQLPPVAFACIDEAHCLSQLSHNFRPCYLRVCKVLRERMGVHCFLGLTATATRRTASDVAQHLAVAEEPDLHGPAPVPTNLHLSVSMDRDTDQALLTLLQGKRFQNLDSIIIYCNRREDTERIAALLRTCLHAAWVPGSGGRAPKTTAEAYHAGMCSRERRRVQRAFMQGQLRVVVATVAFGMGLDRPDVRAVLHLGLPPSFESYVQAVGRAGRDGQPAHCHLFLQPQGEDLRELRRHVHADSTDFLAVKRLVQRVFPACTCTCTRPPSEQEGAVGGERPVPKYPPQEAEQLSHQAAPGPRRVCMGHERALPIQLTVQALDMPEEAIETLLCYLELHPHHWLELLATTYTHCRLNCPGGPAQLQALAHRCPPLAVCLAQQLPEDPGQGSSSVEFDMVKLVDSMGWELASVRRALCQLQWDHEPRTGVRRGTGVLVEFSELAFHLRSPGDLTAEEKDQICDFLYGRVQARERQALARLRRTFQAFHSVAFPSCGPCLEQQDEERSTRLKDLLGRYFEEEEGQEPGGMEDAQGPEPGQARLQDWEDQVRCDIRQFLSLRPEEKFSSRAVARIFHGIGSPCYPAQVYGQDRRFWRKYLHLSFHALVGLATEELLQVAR

Binder: CCATTCCACCCTCTATTTTTTTTTTTTTTT (ssDNA) [T3-Cy3]
- binding result (RecQ4 427-1208 H615L): binds
- binding result (RecQ4 427-1208 W613L): binds
